Experimental data taken from patent CN117545772A (FUSION THERAPEUTICS INC, dated 2024).
Several values for one entry are separate records, joined by “and”; a condition that tells them apart may be missing. Equal entries are not always repeated.

T1: 重组人CD123抗原(细胞外结构域，Sino Biological) (human, UniProt P26951 19-305)
T1 construct: Bought; also called 重组的纯化CD123抗原
T1 sequence: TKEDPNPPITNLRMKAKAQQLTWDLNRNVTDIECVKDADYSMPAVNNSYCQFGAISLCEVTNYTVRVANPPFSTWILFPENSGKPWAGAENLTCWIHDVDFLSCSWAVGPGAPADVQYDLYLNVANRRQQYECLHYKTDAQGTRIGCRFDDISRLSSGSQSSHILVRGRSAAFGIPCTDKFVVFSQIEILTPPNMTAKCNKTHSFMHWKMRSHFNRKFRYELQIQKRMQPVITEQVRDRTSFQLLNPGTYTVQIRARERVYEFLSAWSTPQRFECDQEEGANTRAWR

B1: 抗CD123 VHH 1A3 (VHH)
VHH: EVQLVESGGGLVQAGGSLRLSCAASGRAINTYAMAWFRQAPGKERDFVATISYSGGTTDYAGSVKGRFTISRDNAENTVYLQMNSLKPEDTAVYYCAARDRYNPLARNYNYWGQGTQVTVSS
notes: also called 1A3抗体
B2: 1D2-5C8var1(Y105F)-Fc (bispecific antibody, V domains shown)
V domain 1: EVQLLESGGGSVQPGGSLRLSCAASGRPFSNYAMSWFRQAPGKEREFVSAISWSGGSTSYADSVKGRFTISRDNSKNTLYLQMNSLRAEDTAVYYCAAQFSGADFGFGRLGIRGYEYDYWGQGTQVTVSS
V domain 2: EVQLVESGGGLVQAGGSLRLSCAASGRTASSYVMGWFRQAPGKEREFVAVINWNGDSTYYTDSVKGRFAISRDNAKNTVYLQMNSLKPEDTAVYYCAADTRREWYRDGYWGPPARYEYDYRGQGTQVTVSS

Key:
[1] = target: T1, 重组人CD123抗原(细胞外结构域，Sino Biological); assay: phage ELISA on captured recombinant antigen
人CD123 (在细胞上表达) [2] = target: T2, 人CD123 (在细胞上表达) (human, UniProt P26951 19-378); assay: flow cytometry on the C1R-CD1d cells expressing CD123 used for immunisation
T2 construct: Used for all cells that carry CD123; the cell is named under assay or readout; Expression construct for 293F bought from Invivogen; also called 白介素-3受体α链; 瞬时表达CD123的293F细胞

人CD123 (在细胞上表达) [3] = target: T2, 人CD123 (在细胞上表达); assay: cell-based or functional assay

| Binder | binding result [1] | binding result (人CD123 (在细胞上表达) [2]) | EC50 of T细胞介导的THP-1靶细胞的细胞毒性 (24小时) (人CD123 (在细胞上表达) [3]) | THP-1裂解的EC50 (2号供体) (人CD123 (在细胞上表达) [3]) [pM] | THP-1靶细胞裂解的效力(EC50), THP-1:pDC:Vγ9Vδ2T 1:1:2共培养 (人CD123 (在细胞上表达) [3]) [pM] | pDC裂解的EC50 (2号供体) (人CD123 (在细胞上表达) [3]) [pM] | pDC裂解的EC50相对于THP-1裂解的EC50 (人CD123 (在细胞上表达) [3]) [fold] |
| --- | --- | --- | --- | --- | --- | --- | --- |
| B1 | binds | binds | – | – | – | – | – |
| B2 | – | – | 1 pM and 3 pM | 1 | ~1 | 11 | ~10 |
